Test results published in IntAct's records for PubMed 11734542.

B1: Protein phosphatase EYA1 (Mus musculus), P97767 (parent)
chain: MEMQDLTSPHSRLSGSSESPSGPKLDSSHINSTSMTPNGTEVKTEPMSSSEIASTAADGSLDSFSGSALGSSSFSPRPAHPFSPPQIYPSKSYPHILPTPSSQTMAAYGQTQFTTGMQQATAYATYPQPGQPYGISSYGALWAGIKTESGLSQSQSPGQTGFLSYGTSFGTPQPGQAPYSYQMQGSSFTTSSGLYSGNNSLTNSSGFNSSQQDYPSYPGFGQGQYAQYYNSSPYPAHYMTSSNTSPTTPSTNATYQLQEPPSGVTSQAVTDPTAEYSTIHSPSTPIKETDSERLRRGSDGKSRGRGRRNNNPSPPPDSDLERVFIWDLDETIIVFHSLLTGSYANRYGRDPPTSVSLGLRMEEMIFNLADTHLFFNDLEECDQVHIDDVSSDDNGQDLSTYNFGTDGFPAAATSANLCLATGVRGGVDWMRKLAFRYRRVKEIYNTYKNNVGGLLGPAKREAWLQLRAEIEALTDSWLTLALKALSLIHSRTNCVNILVTTTQLIPALAKVLLYGLGIVFPIENIYSATKIGKESCFERIIQRFGRKVVYVVIGDGVEEEQGAKKHAMPFWRVSSHSDLMALHHALELEYL
partner: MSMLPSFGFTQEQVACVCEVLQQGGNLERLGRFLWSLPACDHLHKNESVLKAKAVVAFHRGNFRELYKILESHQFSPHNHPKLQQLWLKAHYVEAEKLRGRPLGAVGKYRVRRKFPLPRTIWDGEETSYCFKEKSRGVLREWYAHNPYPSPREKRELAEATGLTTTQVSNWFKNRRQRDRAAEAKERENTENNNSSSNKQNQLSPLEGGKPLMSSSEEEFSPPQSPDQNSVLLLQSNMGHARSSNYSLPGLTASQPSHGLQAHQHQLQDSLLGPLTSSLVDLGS
B2: Protein phosphatase EYA1 (Mus musculus), P97767 (parent)
chain: B1 chain
partner: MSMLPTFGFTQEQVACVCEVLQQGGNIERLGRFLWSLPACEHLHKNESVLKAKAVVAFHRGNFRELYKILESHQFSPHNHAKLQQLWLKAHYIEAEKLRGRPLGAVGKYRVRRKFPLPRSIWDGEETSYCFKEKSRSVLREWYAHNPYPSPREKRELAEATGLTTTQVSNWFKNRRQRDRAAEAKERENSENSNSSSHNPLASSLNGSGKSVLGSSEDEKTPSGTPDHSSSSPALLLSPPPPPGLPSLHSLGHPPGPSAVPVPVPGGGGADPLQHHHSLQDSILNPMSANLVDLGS

Variants of: B1
Conditions: with six1_mouse Six1, Q62231

Row | effect of a mutation on the interaction | Variant
1 | disrupting interaction | L504R
2 | disrupting interaction | S486P
3 | disrupting interaction | E330K

Variants of: B1
Conditions: with six1_mouse Six1, Q62231
Remark: another data set of the same source

Row | effect of a mutation on the interaction | Variant
4 | decreasing interaction | L504R
5 | decreasing interaction | S486P
6 | decreasing interaction | E330K

Variants of: B2
Conditions: with six2_mouse Six2, Q62232

Row | Variant | effect of a mutation on the interaction
7 | E330K | decreasing interaction
8 | G425S | decreasing interaction

The next lines start with the values.

Row | effect of a mutation on the interaction | Variant
9 | decreasing interaction | S486P
10 | decreasing interaction | L504R
